Measurements from US20240108766A1 (Bayer, published 2024).
Like-named read-outs stand apart in the source and are kept apart here.

T1: human LRRC15 expressed on cells (human, UniProt Q8TF66 22-581)
T1 construct: whole, on cells; On HEK293 cells transfected with LRRC15/ZsGreen1 (Retrogenix), on HT29 cells transfected with human LRRC15, and endogenous on Saos-2; also called LRRC15/ZsGreen1 transfected HEK293 cells; HT29-LRRC15
T1 sequence (looked up): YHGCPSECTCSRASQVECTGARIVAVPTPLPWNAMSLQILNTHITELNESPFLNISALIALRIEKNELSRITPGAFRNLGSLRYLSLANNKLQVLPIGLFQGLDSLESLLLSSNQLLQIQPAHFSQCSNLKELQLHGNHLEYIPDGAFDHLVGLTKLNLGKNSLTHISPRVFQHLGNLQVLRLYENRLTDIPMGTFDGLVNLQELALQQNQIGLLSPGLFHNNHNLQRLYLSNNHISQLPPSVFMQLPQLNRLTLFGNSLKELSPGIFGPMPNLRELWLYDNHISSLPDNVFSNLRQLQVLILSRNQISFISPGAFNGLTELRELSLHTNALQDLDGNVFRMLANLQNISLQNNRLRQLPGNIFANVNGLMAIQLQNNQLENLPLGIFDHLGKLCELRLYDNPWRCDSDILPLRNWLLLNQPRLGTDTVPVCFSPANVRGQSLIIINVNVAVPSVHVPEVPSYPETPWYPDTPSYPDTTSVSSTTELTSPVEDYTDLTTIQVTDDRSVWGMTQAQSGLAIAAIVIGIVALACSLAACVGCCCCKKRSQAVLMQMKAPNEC

T2: Ephrin type-B receptor 6 (EPHB6) on transfected HEK293 cells (human, UniProt O15197 32-1021)
T2 construct: whole, on cells; also called EPHB6/ZsGreen1
T2 sequence (looked up): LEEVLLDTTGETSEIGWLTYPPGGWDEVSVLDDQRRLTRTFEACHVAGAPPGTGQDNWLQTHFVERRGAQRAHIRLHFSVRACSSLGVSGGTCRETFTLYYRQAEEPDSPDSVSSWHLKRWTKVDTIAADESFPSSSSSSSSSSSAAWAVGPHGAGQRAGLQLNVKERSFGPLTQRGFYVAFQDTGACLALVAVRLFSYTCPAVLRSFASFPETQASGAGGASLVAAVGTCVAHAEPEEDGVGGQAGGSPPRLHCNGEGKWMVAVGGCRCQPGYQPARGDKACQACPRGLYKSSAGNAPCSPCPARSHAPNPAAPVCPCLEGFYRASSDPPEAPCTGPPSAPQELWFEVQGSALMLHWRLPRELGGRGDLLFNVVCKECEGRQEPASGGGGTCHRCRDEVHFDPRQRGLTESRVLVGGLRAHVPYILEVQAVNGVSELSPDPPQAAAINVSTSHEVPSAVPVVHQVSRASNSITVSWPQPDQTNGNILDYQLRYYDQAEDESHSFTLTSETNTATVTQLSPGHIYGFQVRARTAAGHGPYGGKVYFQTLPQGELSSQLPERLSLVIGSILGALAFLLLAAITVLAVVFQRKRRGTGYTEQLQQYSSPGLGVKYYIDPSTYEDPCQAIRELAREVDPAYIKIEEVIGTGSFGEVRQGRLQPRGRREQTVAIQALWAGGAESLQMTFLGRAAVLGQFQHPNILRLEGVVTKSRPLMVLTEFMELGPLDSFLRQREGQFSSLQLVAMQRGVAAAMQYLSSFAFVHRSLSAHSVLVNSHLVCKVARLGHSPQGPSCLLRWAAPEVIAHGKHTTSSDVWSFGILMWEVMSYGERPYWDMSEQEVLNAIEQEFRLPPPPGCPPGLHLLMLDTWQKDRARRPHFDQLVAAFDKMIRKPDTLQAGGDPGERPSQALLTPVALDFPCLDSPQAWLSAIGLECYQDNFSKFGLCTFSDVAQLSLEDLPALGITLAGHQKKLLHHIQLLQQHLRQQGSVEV


Tests used:
[1] = biological target: T1, human LRRC15 expressed on cells; assay: flow cytometry, transfected HEK293
[2] = biological target: T1, human LRRC15 expressed on cells; assay: flow cytometry, transfected HEK293; remark: listed apart in the source
[3] = biological target: T2, Ephrin type-B receptor 6 (EPHB6) on …; assay: flow cytometry, live transfected HEK293 cells

EC50 [1] [µg/mL]	EC50 [2] [µg/mL]	binding result [3]	Binder
0.26			TPP-14389 (antibody, human IgG1, kappa, V domains shown, also called 13612-rec02-hIgG1Kappa) VH: EVQLLESGGGLVQPGGSLRLSCAASGFTFSGYMMSWVRQAPGKGLEWVSGIYPSPGYTYYADSVKGRFTISRDNSKNTLYLQMNSLRAEDTAVYYCAREKASDLFGSYSEALDYWGQGTLVTVSS VL: DIQMTQSPDSLSASVGDRVTITCRASQDVGSWLAWYQQKPGKAPKLLIFAASSLESGIPSRFSGSGSGTDFTLTISSLQPEDFATYYCQQANGFPLTFGGGTKVEIKR
	0.42	no binding (tested: up to 62.5 µg/ml)	TPP-17421 (antibody, human IgG1, kappa, V domains shown, also called 438H-M306-C11-hIgG1Kappa) VH: EVQLVQSGAEVKKPGASVKVSCKASGYKFSSYWIEWVKQAPGQGLEWIGEILPGSDWTNYNEKFKDRATFTSDTSINTAYMELSRLRSDDTAVYYCARDRGNYRAWFQYWGQGTLVTVSS VL: DIQMTQSPSSLSASVGDRVTITCRASQSISSYLNWYQQKPGGAPKFLIYYASSLQSGVPSRFSGSGSGTDYTLTISSLQPEDFATYYCQQGLELPWTFGGGTKVEIKR
